This note sets out measurements from the supplement of paper PMC7125110.

± gives the standard error. Fewer inactive variants are shown than the library holds.

To fix the notation:
B1: glmS ribozyme (parent)
chain: AUAAAAGCGCCAGAACUACAGAAAUGUAGUUGACGAGGAGGAGGUUUAUCGAAUUUUCGGCGGAUGCCUCCAAA

What all share (conditions): with glucosamine-6-phosphate
Variants of B1 are the subject of data set [1]. The data set is described as follows: self-cleavage kobs at 40 uM GlcN6P; higher = faster cleavage; RNA array. An outline of the steps: (§1)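 E. coli RNA polymerase transcribed barcoded ribozyme variants in situ on sequenced MiSeq chips, which were tracked via a hybridised Cy3 probe at 37 °C. Tiles were imaged over ~14 h after glucosamine-6-phosphate (40 μM to 10 mM) in HEPES/KCl/Mg(OAc)2 buffer was flowed in. Normalised per-tile medians were fit to one- or two-exponential decays for kobs, and kcat and KM came from weighted Michaelis–Menten fits.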

Data set [2] covers variants of B1. The data set is described as follows: self-cleavage kobs at 10000 uM GlcN6P; higher = faster cleavage; RNA array. Summed up:
as §1

In data set [3] the parent is B1. The data set is described as follows: self-cleavage kobs at 160 uM GlcN6P; higher = faster cleavage; RNA array. An outline of the steps:
as §1

Variants of B1 are the subject of data set [4]. The data set can be described thus: self-cleavage kobs at 640 uM GlcN6P; higher = faster cleavage; RNA array. Summed up:
as §1

Variants of B1 are the subject of data set [5]. The data set is described as follows: self-cleavage kobs at 2500 uM GlcN6P; higher = faster cleavage; RNA array. Summed up: as §1

With A39G A48U C58G, in the data set with glucosamine-6-phosphate [1], the “self-cleavage kobs at 40 uM GlcN6P” value is below 1e-05 s⁻¹. Besides, in the data set with glucosamine-6-phosphate [2], the “self-cleavage kobs at 10000 uM GlcN6P” value is below 1e-05 s⁻¹.

For the variant G7U C50A, the “self-cleavage kobs at 160 uM GlcN6P” value in the data set with glucosamine-6-phosphate [3] was below 1e-05 s⁻¹. Also, the “self-cleavage kobs at 640 uM GlcN6P” value with glucosamine-6-phosphate [4] was below 1e-05 s⁻¹. Also, the “self-cleavage kobs at 10000 uM GlcN6P” value in the data set with glucosamine-6-phosphate [2] was below 1e-05 s⁻¹.

As to G37U G60A, the “self-cleavage kobs at 40 uM GlcN6P” value with glucosamine-6-phosphate [1] was below 1e-05 s⁻¹. Further, in the data set with glucosamine-6-phosphate [4], the “self-cleavage kobs at 640 uM GlcN6P” value is below 1e-05 s⁻¹.

For the variant G32C G44A A48U, in the data set with glucosamine-6-phosphate [3], the “self-cleavage kobs at 160 uM GlcN6P” value was below 1e-05 s⁻¹. Further, the “self-cleavage kobs at 640 uM GlcN6P” value with glucosamine-6-phosphate [4] was below 1e-05 s⁻¹. Besides, in the data set with glucosamine-6-phosphate [5], the “self-cleavage kobs at 2500 uM GlcN6P” value was below 1e-05 s⁻¹.

Regarding A39C A48C U55C C58U, the “self-cleavage kobs at 40 uM GlcN6P” value with glucosamine-6-phosphate [1] is below 1e-05 s⁻¹. In addition, in the data set with glucosamine-6-phosphate [4], the “self-cleavage kobs at 640 uM GlcN6P” value is below 1e-05 s⁻¹. In the data set with glucosamine-6-phosphate [5], the “self-cleavage kobs at 2500 uM GlcN6P” value was below 1e-05 s⁻¹.

Turning to U45G U46G C61A, the “self-cleavage kobs at 40 uM GlcN6P” value in the data set with glucosamine-6-phosphate [1] is below 1e-05 s⁻¹. The “self-cleavage kobs at 10000 uM GlcN6P” value in the data set with glucosamine-6-phosphate [2] is below 1e-05 s⁻¹.

Regarding U30G A48G C71U, the “self-cleavage kobs at 40 uM GlcN6P” value with glucosamine-6-phosphate [1] is below 1e-05 s⁻¹. For the same variant, in the data set with glucosamine-6-phosphate [4], the “self-cleavage kobs at 640 uM GlcN6P” value is below 1e-05 s⁻¹.

As to A39G U47C, the “self-cleavage kobs at 40 uM GlcN6P” value with glucosamine-6-phosphate [1] worked out at 0.000381 ± 6e-05 s⁻¹. Further, the “self-cleavage kobs at 640 uM GlcN6P” value with glucosamine-6-phosphate [4] amounted to 0.00353 ± 0.0012 s⁻¹. Further, the “self-cleavage kobs at 2500 uM GlcN6P” value with glucosamine-6-phosphate [5] worked out at 0.00728 ± 0.0026 s⁻¹. In addition, the “self-cleavage kobs at 10000 uM GlcN6P” value with glucosamine-6-phosphate [2] turned out to be 0.0217 ± 0.0054 s⁻¹.

For C8A C67G, in the data set with glucosamine-6-phosphate [1], the “self-cleavage kobs at 40 uM GlcN6P” value was below 1e-05 s⁻¹. In addition, the “self-cleavage kobs at 160 uM GlcN6P” value in the data set with glucosamine-6-phosphate [3] was below 1e-05 s⁻¹. The “self-cleavage kobs at 640 uM GlcN6P” value in the data set with glucosamine-6-phosphate [4] was below 1e-05 s⁻¹. Moreover, the “self-cleavage kobs at 2500 uM GlcN6P” value in the data set with glucosamine-6-phosphate [5] is below 1e-05 s⁻¹. The “self-cleavage kobs at 10000 uM GlcN6P” value with glucosamine-6-phosphate [2] is below 1e-05 s⁻¹.

In the case of C11A G59C, in the data set with glucosamine-6-phosphate [1], the “self-cleavage kobs at 40 uM GlcN6P” value is below 1e-05 s⁻¹. The “self-cleavage kobs at 160 uM GlcN6P” value in the data set with glucosamine-6-phosphate [3] was below 1e-05 s⁻¹. For the same variant, in the data set with glucosamine-6-phosphate [4], the “self-cleavage kobs at 640 uM GlcN6P” value is below 1e-05 s⁻¹.

Take C34A U56A: the “self-cleavage kobs at 40 uM GlcN6P” value with glucosamine-6-phosphate [1] is below 1e-05 s⁻¹. Further, in the data set with glucosamine-6-phosphate [3], the “self-cleavage kobs at 160 uM GlcN6P” value was below 1e-05 s⁻¹. Besides, the “self-cleavage kobs at 640 uM GlcN6P” value with glucosamine-6-phosphate [4] was below 1e-05 s⁻¹. Besides, the “self-cleavage kobs at 2500 uM GlcN6P” value in the data set with glucosamine-6-phosphate [5] is below 1e-05 s⁻¹.

For A33C A36G, the “self-cleavage kobs at 160 uM GlcN6P” value with glucosamine-6-phosphate [3] is below 1e-05 s⁻¹. For the same variant, in the data set with glucosamine-6-phosphate [4], the “self-cleavage kobs at 640 uM GlcN6P” value was below 1e-05 s⁻¹. Further, the “self-cleavage kobs at 2500 uM GlcN6P” value in the data set with glucosamine-6-phosphate [5] is below 1e-05 s⁻¹. In addition, in the data set with glucosamine-6-phosphate [2], the “self-cleavage kobs at 10000 uM GlcN6P” value was below 1e-05 s⁻¹.

As to G13A G62U C70U, the “self-cleavage kobs at 40 uM GlcN6P” value with glucosamine-6-phosphate [1] is below 1e-05 s⁻¹. In the data set with glucosamine-6-phosphate [2], the “self-cleavage kobs at 10000 uM GlcN6P” value was below 1e-05 s⁻¹.

On to C10A G32C G51U, for which the “self-cleavage kobs at 160 uM GlcN6P” value in the data set with glucosamine-6-phosphate [3] is below 1e-05 s⁻¹.

As to A15G U55A, in the data set with glucosamine-6-phosphate [1], the “self-cleavage kobs at 40 uM GlcN6P” value stood at 0.000962 ± 0.00014 s⁻¹. Moreover, the “self-cleavage kobs at 160 uM GlcN6P” value with glucosamine-6-phosphate [3] turned out to be 0.00144 ± 0.00025 s⁻¹. In addition, the “self-cleavage kobs at 640 uM GlcN6P” value with glucosamine-6-phosphate [4] is 0.0107 ± 0.0017 s⁻¹. The “self-cleavage kobs at 10000 uM GlcN6P” value in the data set with glucosamine-6-phosphate [2] was 0.0387 ± 0.0094 s⁻¹.

On to A42C U47G, for which, in the data set with glucosamine-6-phosphate [1], the “self-cleavage kobs at 40 uM GlcN6P” value was below 1e-05 s⁻¹. In the data set with glucosamine-6-phosphate [5], the “self-cleavage kobs at 2500 uM GlcN6P” value was below 1e-05 s⁻¹.

As to A39G G62A, the “self-cleavage kobs at 160 uM GlcN6P” value in the data set with glucosamine-6-phosphate [3] was below 1e-05 s⁻¹. Besides, in the data set with glucosamine-6-phosphate [5], the “self-cleavage kobs at 2500 uM GlcN6P” value is below 1e-05 s⁻¹. For the same variant, in the data set with glucosamine-6-phosphate [2], the “self-cleavage kobs at 10000 uM GlcN6P” value is below 1e-05 s⁻¹.

For A42C A52U C61U, the “self-cleavage kobs at 40 uM GlcN6P” value with glucosamine-6-phosphate [1] is below 1e-05 s⁻¹. In addition, the “self-cleavage kobs at 640 uM GlcN6P” value with glucosamine-6-phosphate [4] was below 1e-05 s⁻¹.

On to G43U C50U U55G, for which the “self-cleavage kobs at 40 uM GlcN6P” value with glucosamine-6-phosphate [1] is below 1e-05 s⁻¹. Besides, in the data set with glucosamine-6-phosphate [4], the “self-cleavage kobs at 640 uM GlcN6P” value is below 1e-05 s⁻¹. Also, in the data set with glucosamine-6-phosphate [5], the “self-cleavage kobs at 2500 uM GlcN6P” value is below 1e-05 s⁻¹.

Turning to G32U G51U, the “self-cleavage kobs at 160 uM GlcN6P” value with glucosamine-6-phosphate [3] is below 1e-05 s⁻¹. In addition, in the data set with glucosamine-6-phosphate [4], the “self-cleavage kobs at 640 uM GlcN6P” value was below 1e-05 s⁻¹.

With G38U A52C, the “self-cleavage kobs at 40 uM GlcN6P” value with glucosamine-6-phosphate [1] is below 1e-05 s⁻¹. The “self-cleavage kobs at 640 uM GlcN6P” value in the data set with glucosamine-6-phosphate [4] was below 1e-05 s⁻¹. The “self-cleavage kobs at 10000 uM GlcN6P” value with glucosamine-6-phosphate [2] was below 1e-05 s⁻¹.

Consider A14G C34A G44U C68U, for which, in the data set with glucosamine-6-phosphate [1], the “self-cleavage kobs at 40 uM GlcN6P” value is below 1e-05 s⁻¹. Also, in the data set with glucosamine-6-phosphate [3], the “self-cleavage kobs at 160 uM GlcN6P” value was below 1e-05 s⁻¹.

In the case of G43C U55G U56G C67G, in the data set with glucosamine-6-phosphate [3], the “self-cleavage kobs at 160 uM GlcN6P” value was below 1e-05 s⁻¹.

For the variant A14G U55C A64C, the “self-cleavage kobs at 40 uM GlcN6P” value in the data set with glucosamine-6-phosphate [1] is below 1e-05 s⁻¹.
